Changes are numbered by the printed parent chain. Values belong to the binder of their own block, whether it stands above or below them.
Biological target: human plasma kallikrein (human, UniProt P03952 20-390; P03952 391-638)
Test: cell-based or functional assay

Chain of human plasma kallikrein (P03952 20-390, chain 1 of 2): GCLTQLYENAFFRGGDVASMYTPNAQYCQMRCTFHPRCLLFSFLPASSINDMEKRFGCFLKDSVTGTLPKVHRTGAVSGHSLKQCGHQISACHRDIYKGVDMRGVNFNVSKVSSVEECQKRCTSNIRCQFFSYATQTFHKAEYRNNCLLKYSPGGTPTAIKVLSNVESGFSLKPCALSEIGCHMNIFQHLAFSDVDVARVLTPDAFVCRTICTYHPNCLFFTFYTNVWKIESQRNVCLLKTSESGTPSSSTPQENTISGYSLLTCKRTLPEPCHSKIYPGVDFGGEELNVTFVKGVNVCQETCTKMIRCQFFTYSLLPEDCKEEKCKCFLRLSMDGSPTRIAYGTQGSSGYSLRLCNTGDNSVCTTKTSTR
Chain of human plasma kallikrein (P03952 391-638, chain 2 of 2): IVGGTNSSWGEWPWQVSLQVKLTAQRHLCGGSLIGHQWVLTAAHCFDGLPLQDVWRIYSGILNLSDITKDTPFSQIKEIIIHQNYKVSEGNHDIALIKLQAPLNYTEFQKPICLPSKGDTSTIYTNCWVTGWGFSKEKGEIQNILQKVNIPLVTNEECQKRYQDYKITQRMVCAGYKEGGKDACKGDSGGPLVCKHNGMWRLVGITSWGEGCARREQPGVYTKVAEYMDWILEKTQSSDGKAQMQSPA

B1: M198-C05 (Fab, V domains shown)
VH: EVQLLESGGGLVQPGGSLRLSCAASGFTFSRYKMYWVRQAPGKGLEWVSVIGPSGGATFYADSVKGRFTISRDNSKNTLYLQMNSLRAEDTAVYYCAYRRTGIPRRDAFDIWGQGTMVTVSS
VL: DIQMTQSPSTLSASVGDRVTITCRASQSISSWLAWYQQKPGKAPNLLIYKASTLESGVPSRFSGSGSGTEFTLTISSLQPDDFATYYCQQYNTYWTFGQGTKVEIK
- % inhibition at 10 nM: 83.9%

B4: M196-D02 (Fab, V domains shown)
VH: B1 VH with R31V, K33S, Y35H, A57I, F59L
VL: B1 VL
- % inhibition at 10 nM: 66.2%

B6: M195-B02 (Fab, V domains shown)
VH: B1 VH with R31P, K33L, Y35W, V50Y, A57P, F59H
VL: B1 VL
- % inhibition at 10 nM: 75.1%

B9: M195-F12 (Fab, V domains shown)
VH: B1 VH with R31H, K33V, Y35M, V50Y, G52V, A57V, F59A
VL: B1 VL
- % inhibition at 10 nM: 45.5%

B11: M198-C03 (Fab, V domains shown)
VH: B1 VH with K33S, Y35S, V50G, G52S, A57E, F59S
VL: B1 VL
- % inhibition at 10 nM: 72.4%

B12: M195-A02 (Fab, V domains shown)
VH: B1 VH with R31Q, K33M, Y35M, V50G, G52S, P53S, A57H, F59D
VL: B1 VL
- % inhibition at 10 nM: 71.3%

B13: M198-A09 (Fab, V domains shown)
VH: B1 VH with R31I, K33F, Y35S, V50S, G52R, P53S, A57P, F59W
VL: B1 VL
- % inhibition at 10 nM: 77.3%

B14: M198-A08 (Fab, V domains shown)
VH: EVQLLESGGGLVQPGGSLRLSCAASGFTFSWYMMQWVRQAPGKGLEWVSRISPSGGTTYADSVKGRFTISRDNSKNTLYLQMNSLRAEDTAVYYCAYRRTGIPRRDAFDIWGQGTMVTVSS
VL: B1 VL
- % inhibition at 10 nM: 72.3%

B15: M197-G10 (Fab, V domains shown)
VH: B1 VH with R31V, K33A, Y35R, V50S, G52Y, A57K, F59W
VL: B1 VL
- % inhibition at 10 nM: 67.6%

B18: M196-G12 (Fab, V domains shown)
VH: B1 VH with R31N, K33S, Y35D, V50R, G52Y, P53S, A57G, F59I
VL: B1 VL
- % inhibition at 10 nM: 51.1%

B19: M198-C06 (Fab, V domains shown)
VH: B1 VH with R31Q, K33F, Y35H, V50Y, G52Y, A57M, F59E
VL: B1 VL
- % inhibition at 10 nM: 76.5%

B23: M198-B12 (Fab, V domains shown)
VH: B1 VH with R31K, K33S, Y35A, V50G, G52Y, A57R, F59L
VL: B1 VL
- % inhibition at 10 nM: 80.7%

B24: M195-G02 (Fab, V domains shown)
VH: B1 VH with R31P, K33N, Y35M, V50S, G52W, A57T, F59D
VL: B1 VL
- % inhibition at 10 nM: 67.5%

B25: M197-C12 (Fab, V domains shown)
VH: B1 VH with R31P, K33D, Y35L, V50Y, G52V, P53S, A57L, F59K
VL: B1 VL
- % inhibition at 10 nM: 56.4%

B26: M196-H03 (Fab, V domains shown)
VH: B14 VH with W31R, M33V, Q35W, R50S, G56D, T58H
VL: B1 VL
- % inhibition at 10 nM: 83.9%

B27: M195-A12 (Fab, V domains shown)
VH: B1 VH with R31P, K33M, Y35M, V50G, G52Y, A57Y, F59V
VL: B1 VL
- % inhibition at 10 nM: 51.7%

The remaining lines, values ahead:

- % inhibition at 10 nM: 81.2%
B2: M202-A04 (Fab, V domains shown)
VH: B1 VH with R31H, K33I, Y35M, V50G, G52Y, P53S, A57I, F59V, T101K, A108D
VL: B1 VL

- % inhibition at 10 nM: 65.4%
B3: M199-A11 (Fab, V domains shown)
VH: B1 VH with R31H, K33I, Y35M, V50G, G52Y, P53S, A57I, F59V, T101R
VL: B1 VL

- % inhibition at 10 nM: 74.3%
B5: M202-C02 (Fab, V domains shown)
VH: B1 VH with R31H, K33I, Y35M, V50G, G52Y, P53S, A57I, F59V, T101P, I103V
VL: B1 VL

- % inhibition at 10 nM: 83.2%
B7: M200-E11 (Fab, V domains shown)
VH: B1 VH with R31H, K33I, Y35M, V50G, G52Y, P53S, A57I, F59V, I103V, I111N
VL: B1 VL

- % inhibition at 10 nM: 51.4%
B8: M202-E03 (Fab, V domains shown)
VH: B1 VH with R31H, K33I, Y35M, V50G, G52Y, P53S, A57I, F59V, D110E
VL: B1 VL

- % inhibition at 10 nM: 75.4%
B10: M198-C09 (Fab, V domains shown)
VH: B1 VH with R31I, K33T, V50S, G52S, A57W, F59Y
VL: B1 VL

- % inhibition at 10 nM: 53.4%
B16: M199-B01 (Fab, V domains shown)
VH: B1 VH with R31H, K33I, Y35M, V50G, G52Y, P53S, A57I, F59V, Y98F, I111N
VL: B1 VL

- % inhibition at 10 nM: 65.1%
B17: M200-F01 (Fab, V domains shown)
VH: B1 VH with R31H, K33I, Y35M, V50G, G52Y, P53S, A57I, F59V, T101M, D107N
VL: B1 VL

- % inhibition at 10 nM: 53.8%
B20: M198-G03 (Fab, V domains shown)
VH: EVQLLESGGGLVQPGGSLRLSCAASGFTFSQYTMVWVRQAPGKGLEWVSWIYSSRANYADSVKGRFTISRDNSKNTLYLQMNSLRAEDTAVYYCAYRRTGIPRRDAFDIWGQGTMVTVSS
VL: B1 VL

- % inhibition at 10 nM: 74.6%
B21: M198-F12 (Fab, V domains shown)
VH: B1 VH with R31I, K33T, Y35M, V50S, G52W, P53S, A57Q, F59K
VL: B1 VL

- % inhibition at 10 nM: 74.5%
B22: M201-H08 (Fab, V domains shown)
VH: EVQLLESGGGLVQPGGSLRLSCAASGFTFSHYIMMWVRQAPGKGLEWVSGIYSSGGITVYADSVKGRFTISRDNSKNTLYLQMNSLRAEDTAVYYCAYRRTGVPRRDALDNWGQGTMVTVSS
VL: B1 VL

- % inhibition at 10 nM: 52.9%
B28: M202-A08 (Fab, V domains shown)
VH: B22 VH with V103I, R106W, L109F, N111I
VL: B1 VL

- % inhibition at 10 nM: 81.9%
B29: M202-B04 (Fab, V domains shown)
VH: B22 VH with T101S, A108D, L109F, N111I
VL: B1 VL

— patent publication US9266964
